From PMC3260182, “Stabilisation of the Fc Fragment of Human IgG1 by Engineered Intradomain Disulfide Bonds” (PLoS ONE, 2012)

Biological target: the molecule itself
Experiment: SEC; size-exclusion HPLC, TSK G3000 SWXL column, PBS with 200 mM NaCl, 1 ml/min, 50 ug protein at about 1 mg/ml; native conditions; molecular weight standards

B1: Fc fragment of human IgG1 with the CysP2 and CysP4 disulfide bonds combined (domain or fragment)
chain: EFTCPPCPAPELLGGPSVFLFPPKPKDTLMISRTPEVTCVVVDVSHEDPEVKFNWYVDGVEVHNAKTKPREEQYNSTYRVVSVLTVLHQDWLNGKEYKCKVSNKALPAPIEKTISKAKGQCREPQVYTLPPSRDELTKNQVSLTCLVKGFYPCDIAVEWESNGQPENNYKTTPCVLDSDGSFFLYSKLTVDKSRWQQGNVFSCSVMHECLHNHYTQKSLSLSPGK
modifications: N-linked glycosylation at residue Asn297; engineered intradomain disulfide bonds between Cys343 and Cys431 and between Cys375 and Cys396
notes: 2 extra amino acid residues at the N-terminal site due to the EcoRI site used for cloning; the substitutions are still to be applied; Fc fragment of the human IgG1 heavy chain constant region in which the CysP2 and CysP4 mutations are combined; the first letter T is position 225. numbers count on: Kabat EU numbering; Primers are in File S1; also called CysP24; FcCysP24; source: Pichia pastoris …
For B1, the “stoichiometry N” value was 2.
